Test results taken from patent US20130064834A1 (published 2013).
One block for each binder: values may come before it.

Key:
Human PCSK9-myc-myc-his [1] = target: T1, Human PCSK9-myc-myc-his (human, UniProt Q8NBP7 31-692); test: competition ELISA vs EGF-AB-hFc, pH 5.5
T1 construct: also called hPCSK9-mmh; hPCSK9
Experimental: (§1) Briefly, hLDLR-ecto, hLDLR EGF-A-hFc or hLDLR EGF-AB-hFc, each at 2 μg/ml, was coated on a 96-well plate in PBS buffer overnight at 4° C., and nonspecific binding sites blocked with BSA. […] The equilibrated sample solutions were transferred to receptor or receptor fragment coated plates.

hPCSK9(D374Y)-mmh [2] = target: T2, hPCSK9(D374Y)-mmh (human, UniProt Q8NBP7 31-692); test: competition ELISA vs EGF-A-hFc, pH 7.2
T2 construct: also called hPCSK(D374Y)-mmh
Experimental: as §1

[3] = target: T3, mouse PCSK9, myc-myc-his tagged (mouse, UniProt Q80W65 35-694); test: competition ELISA vs EGF-A-hFc, pH 7.2
T3 construct: also called mPCSK9-mmh; mPCSK9
Experimental: as §1

[4] = target: T4, tagged rhesus monkey (Macaca mulata) PCSK9 (rhesus monkey (Macaca mulata), UniProt A8T666 31-692); test: competition ELISA vs EGF-A-hFc, pH 7.2
T4 construct: also called mmPCSK9-mmh; mmPCSK9
Experimental: as §1

Human PCSK9-myc-myc-his [5] = target: T1, Human PCSK9-myc-myc-his; test: SPR, mAb captured on anti-hFc, 100 nM antigen
Experimental: (§2) Changes in RU due to the binding of each protein to the mAb surface was determined.

[6] = target: T3, mouse PCSK9, myc-myc-his tagged; test: SPR, mAb captured on anti-hFc, 100 nM antigen
Experimental: as §2

[7] = target: Chimeric protein #2 (hPro-mCat-mC-term-mmh) (human; mouse, UniProt Q80W65 19-694); test: SPR, mAb captured on anti-hFc, 100 nM antigen
Experimental: as §2

Human PCSK9-myc-myc-his [8] = target: T1, Human PCSK9-myc-myc-his; test: competition ELISA vs EGF-A-hFc, pH 5.5
Experimental: as §1

hPCSK9(A341R) = target: T5, hPCSK9(A341R) (human, UniProt Q8NBP7 31-692); test: SPR, mAb captured, 25C;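 also: antibodies held on a sensor chip bearing chemically coupled F(ab′)2 anti-human IgG as the capture surface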
T5 construct: mmh-tagged variant hPCSK9
Text: (§3) Each selected antibody was captured on a F(ab′)2 anti-hIgG surface created through direct chemical coupling to a BIACORE™ chip to form a captured antibody surface.

hPCSK9(P70A, S147F) = hPCSK9(P70A, S147F) (human, UniProt Q8NBP7 31-692); test: SPR, mAb captured, 25C;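 also: antibodies held on a sensor chip bearing chemically coupled F(ab′)2 anti-human IgG as the capture surface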
Text: as §3

hPCSK9(D238R) = target: T6, hPCSK9(D238R) (human, UniProt Q8NBP7 31-692); test: SPR, mAb captured, 25C;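 also: antibodies held on a sensor chip bearing chemically coupled F(ab′)2 anti-human IgG as the capture surface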
T6 construct: mmh-tagged variant hPCSK9
Text: as §3

hPCSK9(R237E) = target: T7, hPCSK9(R237E) (human, UniProt Q8NBP7 31-692); test: SPR, mAb captured, 25C;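 also: antibodies held on a sensor chip bearing chemically coupled F(ab′)2 anti-human IgG as the capture surface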
T7 construct: mmh-tagged variant hPCSK9
Text: as §3

hPCSK9(D374Y)-mmh [9] = target: T2, hPCSK9(D374Y)-mmh; test: SPR, mAb captured, 25C
Text: as §3

hPCSK9(R357H) = target: T8, hPCSK9(R357H) (human, UniProt Q8NBP7 31-692); test: SPR, mAb captured, 25C
T8 construct: mmh-tagged variant hPCSK9
Text: as §3

hPCSK9(T162R) = target: T9, hPCSK9(T162R) (human, UniProt Q8NBP7 31-692); test: SPR, mAb captured, 25C
T9 construct: mmh-tagged variant hPCSK9
Text: as §3

hPCSK9(R215H) = target: T10, hPCSK9(R215H) (human, UniProt Q8NBP7 31-692); test: SPR, mAb captured, 25C
T10 construct: mmh-tagged variant hPCSK9
Text: as §3

hPCSK9(D343R) = target: T11, hPCSK9(D343R) (human, UniProt Q8NBP7 31-692); test: SPR, mAb captured, 25C
T11 construct: mmh-tagged variant hPCSK9
Text: as §3

hPCSK9(S153R) = target: T12, hPCSK9(S153R) (human, UniProt Q8NBP7 31-692); test: SPR, mAb captured, 25C
T12 construct: mmh-tagged variant hPCSK9
Text: as §3

hPCSK9(E197R) = target: T13, hPCSK9(E197R) (human, UniProt Q8NBP7 31-692); test: SPR, mAb captured, 25C
T13 construct: mmh-tagged variant hPCSK9
Text: as §3

hPCSK9(D192R) = target: T14, hPCSK9(D192R) (human, UniProt Q8NBP7 31-692); test: SPR, mAb captured, 25C
T14 construct: mmh-tagged variant hPCSK9
Text: as §3

hPCSK9(R194E) = target: T15, hPCSK9(R194E) (human, UniProt Q8NBP7 31-692); test: SPR, mAb captured, 25C
T15 construct: mmh-tagged variant hPCSK9
Text: as §3

hPCSK9(F216L) = target: T16, hPCSK9(F216L) (human, UniProt Q8NBP7 31-692); test: SPR, mAb captured, 25C
T16 construct: mmh-tagged variant hPCSK9
Text: as §3

hPCSK9(E366K, V380M) = target: T17, hPCSK9(E366K, V380M) (human, UniProt Q8NBP7 31-692); test: SPR, mAb captured, 25C
T17 construct: mmh-tagged variant hPCSK9
Text: as §3

hPCSK9(R215E) = target: T18, hPCSK9(R215E) (human, UniProt Q8NBP7 31-692); test: SPR, mAb captured, 25C
T18 construct: mmh-tagged variant hPCSK9
Text: as §3

hPCSK9(E366K) = target: T19, hPCSK9(E366K) (human, UniProt Q8NBP7 31-692); test: SPR, mAb captured, 25C
T19 construct: mmh-tagged variant hPCSK9
Text: as §3

hPCSK9(S127R) = target: T20, hPCSK9(S127R) (human, UniProt Q8NBP7 31-692); test: SPR, mAb captured, 25C
T20 construct: mmh-tagged variant hPCSK9
Text: as §3

[10] = target: T3, mouse PCSK9, myc-myc-his tagged; test: competition ELISA vs EGF-AB-hFc, pH 7.2
Experimental: as §1

[11] = target: T4, tagged rhesus monkey (Macaca mulata) …; test: competition ELISA vs EGF-AB-hFc, pH 7.2
Experimental: as §1

T4 sequence (A8T666 31-692 limits assumed): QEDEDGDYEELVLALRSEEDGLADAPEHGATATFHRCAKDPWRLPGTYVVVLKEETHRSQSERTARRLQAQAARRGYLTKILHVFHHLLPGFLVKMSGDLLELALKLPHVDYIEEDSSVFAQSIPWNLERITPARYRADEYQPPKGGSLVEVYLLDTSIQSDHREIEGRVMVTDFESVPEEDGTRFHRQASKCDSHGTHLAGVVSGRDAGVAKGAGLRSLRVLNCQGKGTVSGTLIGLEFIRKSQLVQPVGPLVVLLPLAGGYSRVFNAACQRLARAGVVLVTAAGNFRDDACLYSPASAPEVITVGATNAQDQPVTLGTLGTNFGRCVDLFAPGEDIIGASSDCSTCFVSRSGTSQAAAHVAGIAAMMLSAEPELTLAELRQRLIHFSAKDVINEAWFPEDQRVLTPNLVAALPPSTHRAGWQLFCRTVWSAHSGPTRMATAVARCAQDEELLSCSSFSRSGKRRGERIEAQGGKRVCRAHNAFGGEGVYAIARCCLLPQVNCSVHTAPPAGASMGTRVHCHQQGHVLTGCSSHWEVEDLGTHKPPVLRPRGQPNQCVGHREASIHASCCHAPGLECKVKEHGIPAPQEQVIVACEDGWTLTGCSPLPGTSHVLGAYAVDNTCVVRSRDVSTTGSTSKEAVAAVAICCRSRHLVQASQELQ

B1: H1H316P (antibody, V domains shown)
VH: EVQLVESGGGLVQPGGSLRLSCAASGFTFNNYAMNWVRQAPGKGLDWVSTISGSGGTTNYADSVKGRFIISRDSSKHTLYLQMNSLRAEDTAVYYCAKDSNWGNFDLWGRGTLVTVSS
VL: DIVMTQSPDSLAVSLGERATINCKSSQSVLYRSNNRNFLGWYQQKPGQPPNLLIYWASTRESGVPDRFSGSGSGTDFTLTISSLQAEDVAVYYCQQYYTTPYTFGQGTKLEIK
notes: Fully human mAb made in CHO cells; also called mAb316P
- IC50 (Human PCSK9-myc-myc-his [1]): < 0.125 nM
- IC50 (hPCSK9(D374Y)-mmh [2]): 0.203 nM
- IC50 [3]: < 0.25 nM
- IC50 [4]: < 0.25 nM
- change in RU (Human PCSK9-myc-myc-his [5]): 500 RU
- change in RU [6]: 505 RU
- change in RU [7]: 451 RU
- IC50 (Human PCSK9-myc-myc-his [8]): < 0.125 nM
- Kd (hPCSK9(A341R)): 1.54 nM
- T1/2 (hPCSK9(A341R)): 21 min
- Kd (hPCSK9(P70A, S147F)): 1.18 nM
- T1/2 (hPCSK9(P70A, S147F)): 34 min
- Kd (hPCSK9(D238R)): 410 nM
- T1/2 (hPCSK9(D238R)): 1 min
- Kd (hPCSK9(R237E)): 2.48 nM
- T1/2 (hPCSK9(R237E)): 15 min
- Kd (hPCSK9(D374Y)-mmh [9]): 2.04 nM
- T1/2 (hPCSK9(D374Y)-mmh [9]): 15 min
- Kd (hPCSK9(R357H)): 6.26 nM
- T1/2 (hPCSK9(R357H)): 30 min
- Kd (hPCSK9(T162R)): 0.98 nM
- T1/2 (hPCSK9(T162R)): 43 min
- Kd (hPCSK9(R215H)): 0.86 nM
- T1/2 (hPCSK9(R215H)): 41 min
- Kd (hPCSK9(D343R)): 7.88 nM
- T1/2 (hPCSK9(D343R)): 6 min
- Kd (hPCSK9(S153R)): 5.64 nM
- T1/2 (hPCSK9(S153R)): 4 min
- Kd (hPCSK9(E197R)): 1.42 nM
- T1/2 (hPCSK9(E197R)): 27 min
- Kd (hPCSK9(D192R)): 1.35 nM
- T1/2 (hPCSK9(D192R)): 28 min
- Kd (hPCSK9(R194E)): 0.38 nM
- T1/2 (hPCSK9(R194E)): 71 min
- Kd (hPCSK9(F216L)): 1.83 nM
- T1/2 (hPCSK9(F216L)): 32 min
- Kd (hPCSK9(E366K, V380M)): 3.33 nM
- T1/2 (hPCSK9(E366K, V380M)): 12 min
- Kd (hPCSK9(R215E)): 0.9 nM
- T1/2 (hPCSK9(R215E)): 43 min
- Kd (hPCSK9(E366K)): 2.92 nM
- T1/2 (hPCSK9(E366K)): 13 min
- Kd (hPCSK9(S127R)): 2.4 nM
- T1/2 (hPCSK9(S127R)): 36 min
- IC50 [10]: < 0.25 nM
- IC50 [11]: < 0.25 nM

- IC50 (Human PCSK9-myc-myc-his [1]): 0.447 nM
- IC50 (hPCSK9(D374Y)-mmh [2]): 0.135 nM
- IC50 [3]: > 33 nM
- IC50 [4]: 0.256 nM
- change in RU (Human PCSK9-myc-myc-his [5]): 320 RU
- change in RU [6]: 13 RU
- change in RU [7]: 76 RU
- IC50 (Human PCSK9-myc-myc-his [8]): 0.538 nM
- Kd (hPCSK9(A341R)): 0.34 nM
- T1/2 (hPCSK9(A341R)): 190 min
- Kd (hPCSK9(P70A, S147F)): 7.87 nM
- T1/2 (hPCSK9(P70A, S147F)): 24 min
- Kd (hPCSK9(D238R)): 0.78 nM
- T1/2 (hPCSK9(D238R)): 123 min
- Kd (hPCSK9(R237E)): 1.03 nM
- T1/2 (hPCSK9(R237E)): 109 min
- Kd (hPCSK9(D374Y)-mmh [9]): 0.66 nM
- T1/2 (hPCSK9(D374Y)-mmh [9]): 83 min
- Kd (hPCSK9(R357H)): 6.53 nM
- T1/2 (hPCSK9(R357H)): 66 min
- Kd (hPCSK9(T162R)): 0.58 nM
- T1/2 (hPCSK9(T162R)): 140 min
- Kd (hPCSK9(R215H)): 1.03 nM
- T1/2 (hPCSK9(R215H)): 98 min
- Kd (hPCSK9(D343R)): 1.18 nM
- T1/2 (hPCSK9(D343R)): 89 min
- Kd (hPCSK9(S153R)): 0.56 nM
- T1/2 (hPCSK9(S153R)): 141 min
- Kd (hPCSK9(E197R)): 0.67 nM
- T1/2 (hPCSK9(E197R)): 115 min
- Kd (hPCSK9(D192R)): 0.75 nM
- T1/2 (hPCSK9(D192R)): 119 min
- Kd (hPCSK9(R194E)): 0.65 nM
- T1/2 (hPCSK9(R194E)): 129 min
- Kd (hPCSK9(F216L)): 0.99 nM
- T1/2 (hPCSK9(F216L)): 121 min
- Kd (hPCSK9(E366K, V380M)): 78.3 nM
- T1/2 (hPCSK9(E366K, V380M)): 1 min
- Kd (hPCSK9(R215E)): 1.81 nM
- Kd (hPCSK9(E366K)): 36 nM
- T1/2 (hPCSK9(E366K)): 2 min
- Kd (hPCSK9(S127R)): 1.87 nM
- T1/2 (hPCSK9(S127R)): 110 min
- IC50 [10]: > 33 nM
- IC50 [11]: 0.29 nM
B2: H1M300N (antibody, V domains shown)
VH: EMQLVESGGGLVQPGGSLRLSCAASGFTFSSHWMKWVRQAPGKGLEWVANINQDGSEKYYVDSVKGRFTISRDNAKNSLFLQMNSLRAEDTAVYYCARDIVLMVYDMDYYYYGMDVWGQGTTVTVSS
VL: not shown
notes: Fully human version made in CHO cells
